Measurements reported in PMC9482650, “Quantitative fragmentomics allow affinity mapping of interactomes” (Nature Communications, 2022).

How the values were obtained:
Assay in all cases: holdup assay
Design in all cases: key: below the threshold = too weak to quantify, mostly under pKd 3.1 to 4
[1] = target: AHNAK1, Q09666
[2] = target: T1, APBA1_2, Q02410
T1 sequence (Q02410 742-832, limits assumed, looked up): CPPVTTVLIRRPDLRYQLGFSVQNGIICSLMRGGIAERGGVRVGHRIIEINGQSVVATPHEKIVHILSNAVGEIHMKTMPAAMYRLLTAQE

[3] = target: T2, APBA2_1, Q99767
T2 sequence (Q99767 563-664, limits assumed, looked up): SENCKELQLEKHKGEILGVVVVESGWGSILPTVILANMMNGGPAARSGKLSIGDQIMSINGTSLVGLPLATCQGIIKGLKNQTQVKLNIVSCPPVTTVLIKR

[4] = target: T3, ARHGEF11, O15085
T3 sequence (O15085 42-136, limits assumed, looked up): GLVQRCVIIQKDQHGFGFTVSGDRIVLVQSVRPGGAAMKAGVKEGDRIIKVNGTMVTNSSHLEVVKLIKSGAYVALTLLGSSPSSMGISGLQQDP

[5] = target: ARHGEF12, Q9NZN5-2
[6] = target: DLG4_3, P78352
[7] = target: DLG5_1, Q8TDM6
[8] = target: FRMPD3, Q5JV73
[9] = target: GRIP2_4, Q9C0E4
[10] = target: T4, HTRA3, P83110
T4 sequence (P83110 354-453, limits assumed, looked up): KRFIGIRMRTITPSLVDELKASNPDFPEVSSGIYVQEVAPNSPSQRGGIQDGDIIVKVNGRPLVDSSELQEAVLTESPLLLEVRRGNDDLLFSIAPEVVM

[11] = target: T5, HTRA4, P83105
T5 sequence (P83105 378-476, limits assumed, looked up): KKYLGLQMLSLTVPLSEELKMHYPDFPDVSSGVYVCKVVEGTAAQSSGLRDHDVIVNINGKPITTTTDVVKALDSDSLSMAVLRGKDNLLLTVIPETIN

[12] = target: Inadl_3, Q8NI35
[13] = target: Inadl_4, Q8NI35
[14] = target: Inadl_9, Q8NI35
[15] = target: LNX1_3, Q8TBB1
[16] = target: T6, LNX2_2, Q8N448
T6 sequence (Q8N448 334-432, limits assumed, looked up): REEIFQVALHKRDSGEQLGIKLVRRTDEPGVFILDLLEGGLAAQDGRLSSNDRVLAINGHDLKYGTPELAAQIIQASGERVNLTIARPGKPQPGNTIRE

[17] = target: MAGI1_1, Q96QZ7
[18] = target: MAGI2_2, Q86UL8
[19] = target: MAGI2_3, Q86UL8
[20] = target: MAGI2_4, Q86UL8
[21] = target: MAGI2_5, Q86UL8
[22] = target: MAST1, Q9Y2H9
[23] = target: NHERF2_2, Q15599
[24] = target: NOS1, P29475
[25] = target: T7, PDZRN3_1, Q9UPQ7
T7 sequence (Q9UPQ7 244-349, limits assumed, looked up): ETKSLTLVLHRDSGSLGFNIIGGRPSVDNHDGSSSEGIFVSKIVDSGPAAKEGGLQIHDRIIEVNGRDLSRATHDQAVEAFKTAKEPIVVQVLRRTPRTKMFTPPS

[26] = target: T8, PTPN13_1, Q12923
T8 sequence (Q12923 1088-1188, limits assumed, looked up): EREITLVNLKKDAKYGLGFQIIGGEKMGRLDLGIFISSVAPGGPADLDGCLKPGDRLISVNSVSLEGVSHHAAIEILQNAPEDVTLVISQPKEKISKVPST

[27] = target: SCRIB_3, Q14160
[28] = target: T9, SHANK1, Q9Y566
T9 sequence (Q9Y566 658-767, limits assumed, looked up): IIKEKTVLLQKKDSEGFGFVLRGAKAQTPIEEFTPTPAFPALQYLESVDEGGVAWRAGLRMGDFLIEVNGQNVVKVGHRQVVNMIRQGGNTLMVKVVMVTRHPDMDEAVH

[29] = plain residues with an end cap or a label only (N-terminal biotin on a linker: ahx)
[30] = plain residues with an end cap or a label only (N-terminal biotin on a linker: ttds)

Chain of MAST1, Q9Y2H9 (Q9Y2H9 962-1065): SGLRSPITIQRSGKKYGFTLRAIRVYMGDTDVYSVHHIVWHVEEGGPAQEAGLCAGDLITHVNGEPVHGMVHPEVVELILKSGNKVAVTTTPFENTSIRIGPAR
Chain of Inadl_3, Q8NI35 (Q8NI35 359-469): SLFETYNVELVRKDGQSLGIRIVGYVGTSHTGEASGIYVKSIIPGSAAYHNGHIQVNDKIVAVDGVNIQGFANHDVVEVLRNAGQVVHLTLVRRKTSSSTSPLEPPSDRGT
Chain of MAGI2_4, Q86UL8 (Q86UL8 772-865): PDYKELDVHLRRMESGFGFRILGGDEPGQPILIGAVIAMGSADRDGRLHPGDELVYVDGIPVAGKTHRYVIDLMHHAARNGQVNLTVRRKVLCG
Chain of NOS1, P29475 (P29475 9-101): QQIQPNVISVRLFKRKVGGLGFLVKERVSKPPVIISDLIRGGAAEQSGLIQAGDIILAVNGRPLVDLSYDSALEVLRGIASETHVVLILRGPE
Chain of FRMPD3, Q5JV73 (Q5JV73 12-100): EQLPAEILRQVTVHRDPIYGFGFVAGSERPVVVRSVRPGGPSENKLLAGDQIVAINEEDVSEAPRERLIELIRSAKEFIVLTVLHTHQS
Chain of NHERF2_2, Q15599 (Q15599 142-238): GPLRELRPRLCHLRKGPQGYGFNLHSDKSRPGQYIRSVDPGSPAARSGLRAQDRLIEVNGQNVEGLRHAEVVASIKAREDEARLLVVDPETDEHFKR
Chain of Inadl_4, Q8NI35 (Q8NI35 547-651): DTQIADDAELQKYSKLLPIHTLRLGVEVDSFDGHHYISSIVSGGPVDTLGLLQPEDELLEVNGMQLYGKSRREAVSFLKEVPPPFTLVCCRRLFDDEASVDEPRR
Chain of ARHGEF12, Q9NZN5-2 (Q9NZN5 other isoform, or with tags, fused parts or gaps): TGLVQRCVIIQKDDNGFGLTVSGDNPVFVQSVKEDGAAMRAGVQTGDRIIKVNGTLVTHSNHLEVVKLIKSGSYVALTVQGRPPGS
Chain of MAGI2_2, Q86UL8 (Q86UL8 410-522): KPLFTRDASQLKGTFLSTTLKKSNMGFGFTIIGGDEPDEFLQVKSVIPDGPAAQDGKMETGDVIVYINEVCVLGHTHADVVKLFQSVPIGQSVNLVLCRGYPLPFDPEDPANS
Chain of AHNAK1, Q09666 (Q09666 4-100): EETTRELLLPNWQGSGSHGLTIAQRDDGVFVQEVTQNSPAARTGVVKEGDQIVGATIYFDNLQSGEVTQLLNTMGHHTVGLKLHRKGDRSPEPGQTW
Chain of MAGI2_5, Q86UL8 (Q86UL8 915-1017): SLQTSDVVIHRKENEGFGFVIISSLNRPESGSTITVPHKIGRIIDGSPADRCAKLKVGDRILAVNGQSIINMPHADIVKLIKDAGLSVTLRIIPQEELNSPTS
Chain of DLG5_1, Q8TDM6 (Q8TDM6 617-713): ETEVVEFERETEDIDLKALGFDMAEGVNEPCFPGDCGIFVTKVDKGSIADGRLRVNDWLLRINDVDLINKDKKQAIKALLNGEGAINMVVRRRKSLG
Chain of SCRIB_3, Q14160 (Q14160 999-1103): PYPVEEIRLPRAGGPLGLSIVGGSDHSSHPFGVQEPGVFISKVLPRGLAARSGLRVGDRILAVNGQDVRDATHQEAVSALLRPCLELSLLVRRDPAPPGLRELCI
Chain of GRIP2_4, Q9C0E4 (Q9C0E4 446-548): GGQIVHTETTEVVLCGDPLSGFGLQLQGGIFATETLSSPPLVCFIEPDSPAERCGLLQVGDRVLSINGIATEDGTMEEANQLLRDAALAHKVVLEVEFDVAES
Chain of MAGI1_1, Q96QZ7 (Q96QZ7 1-106): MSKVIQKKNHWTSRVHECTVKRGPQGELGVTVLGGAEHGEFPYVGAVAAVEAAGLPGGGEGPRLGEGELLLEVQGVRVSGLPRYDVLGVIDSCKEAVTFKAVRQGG
Chain of MAGI2_3, Q86UL8 (Q86UL8 600-682): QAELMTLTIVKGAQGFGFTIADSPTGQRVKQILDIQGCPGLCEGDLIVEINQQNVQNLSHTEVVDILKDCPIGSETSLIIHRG
Chain of LNX1_3, Q8TBB1 (Q8TBB1 500-596): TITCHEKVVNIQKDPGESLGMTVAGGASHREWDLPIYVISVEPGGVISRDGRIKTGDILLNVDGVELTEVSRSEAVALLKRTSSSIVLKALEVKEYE
Chain of DLG4_3, P78352 (P78352 306-403): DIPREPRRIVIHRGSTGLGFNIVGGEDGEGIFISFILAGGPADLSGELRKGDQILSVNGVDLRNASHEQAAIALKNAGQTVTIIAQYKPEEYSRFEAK
Chain of Inadl_9, Q8NI35 (Q8NI35 1530-1615): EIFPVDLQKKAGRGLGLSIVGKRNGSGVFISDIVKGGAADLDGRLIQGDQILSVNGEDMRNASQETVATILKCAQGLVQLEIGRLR

B1: SHKBP1, Q8TBC3 (peptide)
chain: PKMKLNETSF
[1]; [29]
  pKd: below the threshold
[2]; [29]
  pKd: below the threshold
[3]; [29]
  pKd: below the threshold
[4]; [29]
  pKd: below the threshold
[5]; [29]
  pKd: below the threshold
[6]; [29]
  pKd: below the threshold
[7]; [29]
  pKd: below the threshold
[8]; [29]
  pKd: below the threshold
[9]; [29]
  pKd: below the threshold
[10]; [29]
  pKd: below the threshold
[11]; [29]
  pKd: below the threshold
[12]; [29]
  pKd: below the threshold
[13]; [29]
  pKd: below the threshold
[14]; [29]
  pKd: below the threshold
[15]; [29]
  pKd: below the threshold
[16]; [29]
  pKd: below the threshold
[17]; [29]
  pKd: below the threshold
[18]; [29]
  pKd: below the threshold
[19]; [29]
  pKd: below the threshold
[20]; [29]
  pKd: 3.69
[21]; [29]
  pKd: 3.53
[22]; [29]
  pKd: 4.32
[23]; [29]
  pKd: 4.32
[24]; [29]
  pKd: below the threshold
[25]; [29]
  pKd: below the threshold
[26]; [29]
  pKd: below the threshold
[27]; [29]
  pKd: 4.49
[28]; [29]
  pKd: 4.21

B2: PDZRN3, Q9UPQ7 (peptide)
chain: YNSFLSVTTV
[1]; [29]
  pKd: 3.53
[2]; [29]
  pKd: below the threshold
[3]; [29]
  pKd: below the threshold
[4]; [29]
  pKd: 4.06
[5]; [29]
  pKd: 4.25
[6]; [29]
  pKd: below the threshold
[7]; [29]
  pKd: below the threshold
[8]; [29]
  pKd: below the threshold
[9]; [29]
  pKd: below the threshold
[10]; [29]
  pKd: below the threshold
[11]; [29]
  pKd: 4.2
[12]; [29]
  pKd: 3.76
[13]; [29]
  pKd: below the threshold
[14]; [29]
  pKd: below the threshold
[15]; [29]
  pKd: below the threshold
[16]; [29]
  pKd: 4.94
[17]; [29]
  pKd: below the threshold
[18]; [29]
  pKd: 3.95
[19]; [29]
  pKd: 3.56
[20]; [29]
  pKd: 4.56
[21]; [29]
  pKd: 3.9
[22]; [29]
  pKd: 3.98
[23]; [29]
  pKd: below the threshold
[24]; [29]
  pKd: below the threshold
[25]; [29]
  pKd: below the threshold
[26]; [29]
  pKd: below the threshold
[27]; [29]
  pKd: 3.64
[28]; [29]
  pKd: 3.66

B3: FZD7, O75084 (peptide)
chain: SHSSKGETAV
[1]; [30]
  pKd: below the threshold
[2]; [30]
  pKd: 3.8
[3]; [30]
  pKd: below the threshold
[4]; [30]
  pKd: 4.3
[5]; [30]
  pKd: 3.97
[6]; [30]
  pKd: 4.02
[7]; [30]
  pKd: below the threshold
[8]; [30]
  pKd: below the threshold
[9]; [30]
  pKd: below the threshold
[10]; [30]
  pKd: 3.96
[11]; [30]
  pKd: below the threshold
[12]; [30]
  pKd: below the threshold
[13]; [30]
  pKd: below the threshold
[14]; [30]
  pKd: below the threshold
[15]; [30]
  pKd: below the threshold
[16]; [30]
  pKd: below the threshold
[17]; [30]
  pKd: below the threshold
[18]; [30]
  pKd: 4.67
[19]; [30]
  pKd: 3.49
[20]; [30]
  pKd: below the threshold
[21]; [30]
  pKd: below the threshold
[22]; [30]
  pKd: 4.77
[23]; [30]
  pKd: below the threshold
[24]; [30]
  pKd: 4.41
[25]; [30]
  pKd: 4.51
[26]; [30]
  pKd: below the threshold
[27]; [30]
  pKd: 4.78
[28]; [30]
  pKd: below the threshold
